Biological target: E18A DJ-1-FLAG (in HeLa cells) (human) (UniProt Q99497)
Assay: cross-linking; HeLa cells transfected with FLAG-tagged DJ-1, without or with 20 uM CCCP for 7 hrs; cell extracts treated with 100 uM DSS for 10 min; Western blot with anti-FLAG

- ratio of dimer (cells treated with CCCP): 68.7
- ratio of dimer (cells without CCCP): 57.2
Substance: E18A DJ-1-FLAG (in HeLa cells) (from UniProt Q99497 1-189) (natural protein)

Source: article PMC3542337
